Test results published in the Immune Epitope Database (IEDB).

What was measured:
Assay in all cases: IEDB peptide-MHC binding, purified MHC/competitive/radioactivity; ≥ and ≤ were set here for values at or beyond the usual limits of such assays
Conditions in all cases: source organism: Bordetella pertussis
HLA-B*44:03 = target: HLA-B*44:03
HLA-A*02:01 = target: HLA-A*02:01
HLA-B*07:02 = target: HLA-B*07:02
HLA-B*53:01 = target: HLA-B*53:01
HLA-B*35:01 = target: HLA-B*35:01
HLA-B*57:01 = target: HLA-B*57:01

DGPPSRPTT
IC50 (HLA-B*44:03): ≥ 70.1 µM

FQTYALTGI
IC50 (HLA-A*02:01): 1.32 µM

LPSIPGTSI
IC50 (HLA-B*07:02): 0.116 µM

NPGSLIAEV
IC50 (HLA-B*53:01): 58.7 µM

PAVALPRPL
IC50 (HLA-B*07:02): ≥ 77.5 µM

QAAPLSITL
IC50 (HLA-B*35:01): 4.46 µM | IC50 (HLA-B*53:01): 4.49 µM

RSRVRALAW
IC50 (HLA-B*57:01): 0.0121 µM

TAFMSGRSL
IC50 (HLA-B*07:02): 56.1 µM

TSKQDERNY
IC50 (HLA-B*57:01): ≥ 70.4 µM

VGGGEHGRW
IC50 (HLA-B*57:01): 57.9 µM

YEAGFSLGS
IC50 (HLA-B*44:03): 35.4 µM
